According to publication PMC6509496, “Crystal structure of the TreS:Pep2 complex, initiating α-glucan synthesis in the GlgE pathway of mycobacteria” (The Journal of Biological Chemistry, 2019):

System: T1, Nc1ncnc2c1ncn2[C@@H]1O[C@H](COP(=O)(O)OP(=O)(O)OP(=O)(O)O)[C@@H](O)[C@H]1O
T1 construct: full length (441 residues), N-terminal His6 tag (pET28a), E. coli BL21(DE3); monomer
Experiment: coupled pyruvate kinase / lactate dehydrogenase assay, NADH depletion
Type: biochemical, Mycolicibacterium smegmatis
Details: 20 mM maltose, 10 mM MgCl2, 50 mM sodium phosphate pH 7.5, 300 mM NaCl, 10% glycerol, no TreS
Text: coupled pyruvate kinase / lactate dehydrogenase assay, NADH depletion on Msm Pep2 (M. smegmatis maltokinase, MsPep2)

“Msm Pep2 (M. smegmatis maltokinase, MsPep2) (Mycolicibacterium smegmatis MC2 155)” was tested, and the Km was 76 ± 7 µM.
